According to patent US20250163449A1, “HERBICIDE-TOLERANT GENES AND METHOD FOR USING SAME” (QINGDAO KINGAGROOT CHEMICAL COMPOUND CO., LTD., priority 2022, published 2025):

Tests used:
[1] = Conversion rate of substrate compound A by E. coli expressing each engineered protein (HPLC, oxygenase activity); format: biochemical
Excerpt: The high-throughput bacterial protein expression was achieved by cloning the synthesized gene that encodes each engineered protein into a bacterial expression vector with a C-terminal histidine tag (His-tag). The vectors were transformed into Escherichia coli (E. coli), and expression of the engineered proteins was induced. E. coli cultures were selected and cultured in centrifuge tubes overnight, meanwhile, added with substrates and IPTG, and the cultures were centrifuged to pellet the bacteria the next day. Alternatively, E. coli cultures were selected and cultured in centrifuge tubes overnight, and centrifuged to pellet the bacteria after adding substrates for reaction the next day. The supernatant of reaction solution was pipetted into a 96-well plate and the absorbance at 510 nm from 4-aminoantipyrine and potassium ferricyanide was measured by an endpoint colorimetric method to detect phenol products. Substrate reduction and product yield were measured by high performance liquid chromatography (HPLC) to detect the oxygenase activity (i.e., enzymatic activity) of the engineered proteins, and the activities of the proteins were compared by calculating conversion rates.
Conversion rate=(Peak area of initial substrate−Peak area of substrate after reaction)/Peak area of initial substrate*100%

[2] = Enzymatic kinetic measurements of purified proteins with compound A as substrate; format: biochemical; details: purified protein, compound A 0-1000 μM as substrate
Experimental: Based on the results of HPLC, representative engineered proteins were selected for protein purification. Further protein characterization, such as Km, Vmax and Kcat, was performed on the 8 engineered proteins from Table 2. Conventional Ni column affinity chromatography was used for protein purification and protein extract purity was assessed by SDS-PAGE analysis. After determining protein concentration by BCA method, enzyme activity was determined.

rice (Jinjing 818) [3] = assay: Transgenic rice seedlings, compound B added to medium at rooting phase; format: in vivo; details: at least 1 μM compound B in medium (0.5 and 1 μM for SEQ ID NO: 42), 17-26 days
Experimental: Plant transformation vectors were constructed, each comprising a recombinant DNA molecule encoding an engineered protein (SEQ ID NO: 42/38/82/86/102/106/126/138/142) with the protein-coding sequence optimized for monocot expression, and rice (Jinjing 818) calli were transformed with these vectors using Agrobacterium tumifaciens and standard methods known in the art. Different concentrations of hormone herbicide compound B were added at the rooting phase of the rice seedlings to test hormone resistance, wherein, the test results of control Jinjing 818 plants and transgenic Jinjing 818 plants comprising the protein-coding gene of SEQ ID NO: 42 after adding 0.5 μM and 1 μM compound B to medium for 19 days are shown in FIG. 1. The test results of control Jinjing 818 plants and transgenic Jinjing 818 plants comprising the protein-coding genes of SEQ ID NO: 38/82/86/102/106/126/138/142 after adding 1 μM compound B to medium are shown in FIG. 5-11.

rice (Jinjing 818) [4] = assay: Transgenic rice T0 plantlets in greenhouse sprayed with compound B; format: in vivo; details: medicated medium test and greenhouse spraying test for T0 generation, compound B
Experimental: Then, the obtained regenerated TO generation transgenic plantlets grew in the greenhouse, and were sprayed with compound B at the growth stage when approximately two leaves unfolded and the third one just appearing. Resistance levels of plants were recorded and evaluated after spraying treatment, wherein, the test results of control Jinjing 818 plants and transgenic Jinjing 818 plants comprising the protein-coding gene of SEQ ID NO: 42 after applying 20 g, 40 g, 60 g, 80 g, 100 g, 120 g/mu (1 mu=1/15 ha) compound B for corresponding days (DAT) are shown in FIG. 2.

Arabidopsis thaliana = assay: T2 transgenic Arabidopsis thaliana seeds screened on compound A medium; format: in vivo; details: 0.15 μM compound A in medium, 11-24 days
Excerpt: Engineered proteins were selected for Arabidopsis thaliana transformation and plant analysis. DNA constructs were transformed into Arabidopsis thaliana using Agrobacterium tumifaciens and standard methods known in the art.
The transformed TO transgenic plantlets grew in the greenhouse. T1 generation Arabidopsis thaliana plant seeds produced by transformation of all constructs were collected after approximately 60 days of growth. Transgenic T1 generation Arabidopsis thaliana plants were screened by adding HYG to medium for T1 generation. T1 plants were selfed to produce seeds of T2 generation Arabidopsis thaliana plants. Wherein, compound A was added to medium to screen and test T2 generation Arabidopsis thaliana plant seeds, that were produced by all constructs, comprising unique events screened by T1 generation.

[5] = Reaction condition 2: bacteria cultured overnight, 8 times dose of substrate compound A of condition 1 added, react 3 hours the next day

Row | Molecule | Conversion rate ([1]; Reaction condition 1: bacteria cultured overnight, substrate compound A and IPTG added to react overnight) [%] | Kcat [2] [S^−1] | Km [2] [µM] | Vmax [2] | drug resistance (tolerance to compound B) compared with wild-type plants (rice (Jinjing 818) [3]) | tolerance compared with the wild types (summary) (rice (Jinjing 818) [4]) | Conversion rate [1, 5] [%] | drug resistance compared with wild-type Arabidopsis thaliana (longer roots and larger leaves) (Arabidopsis thaliana)
1 | SEQ ID NO: 38: RdpA mutant L82H + V187L + F182W + R104G (protein) MHAALSPLSQRFERIAVQPLTGVLGAEITGVDLREPLDDSTWNEILDAFHTYQVIYFPGQAITNEQHIAFSRRFGPVDPVPHLKSIEGYPEVQMIRREANESGGVIGDDWHTDSTFLDAPPAAVVMRAIDVPEHGGDTGFLSMYTAWETLSPTMQATIEGLNVVHSATRVFGSLYQAQNRRWSNTSLKVMDVDAGDRETVHPLVVTHPGSGRKGLYVNQVYCQRIEGMTDAESKPLLQFLYEHATRFDFTCRVRWKKDQVLVWDNLCTMHRAVPDYAGKFRYLTRTTVGGVRPAR | 96.9 | 0.43 | 54.6 | 49.9 | exhibited better drug resistance | exhibited apparent tolerance |  | 
2 | SEQ ID NO: 82: RdpA mutant L82H + V187L + F182W + G103L + R180E (protein) MHAALSPLSQRFERIAVQPLTGVLGAEITGVDLREPLDDSTWNEILDAFHTYQVIYFPGQAITNEQHIAFSRRFGPVDPVPHLKSIEGYPEVQMIRREANESLRVIGDDWHTDSTFLDAPPAAVVMRAIDVPEHGGDTGFLSMYTAWETLSPTMQATIEGLNVVHSATRVFGSLYQAQNERWSNTSLKVMDVDAGDRETVHPLVVTHPGSGRKGLYVNQVYCQRIEGMTDAESKPLLQFLYEHATRFDFTCRVRWKKDQVLVWDNLCTMHRAVPDYAGKFRYLTRTTVGGVRPAR |  |  |  |  | exhibited better drug resistance | exhibited apparent tolerance | 71.6 | exhibited better drug resistance
3 | SEQ ID NO: 86: RdpA mutant L82H + V187L + F182W + G103L + R180S (protein) MHAALSPLSQRFERIAVQPLTGVLGAEITGVDLREPLDDSTWNEILDAFHTYQVIYFPGQAITNEQHIAFSRRFGPVDPVPHLKSIEGYPEVQMIRREANESLRVIGDDWHTDSTFLDAPPAAVVMRAIDVPEHGGDTGFLSMYTAWETLSPTMQATIEGLNVVHSATRVFGSLYQAQNSRWSNTSLKVMDVDAGDRETVHPLVVTHPGSGRKGLYVNQVYCQRIEGMTDAESKPLLQFLYEHATRFDFTCRVRWKKDQVLVWDNLCTMHRAVPDYAGKFRYLTRTTVGGVRPAR |  |  |  |  | exhibited better drug resistance | exhibited apparent tolerance | 76.8 | exhibited better drug resistance
4 | SEQ ID NO: 102: RdpA mutant L82H + V187L + F182W + G103L + T112A (protein) MHAALSPLSQRFERIAVQPLTGVLGAEITGVDLREPLDDSTWNEILDAFHTYQVIYFPGQAITNEQHIAFSRRFGPVDPVPHLKSIEGYPEVQMIRREANESLRVIGDDWHADSTFLDAPPAAVVMRAIDVPEHGGDTGFLSMYTAWETLSPTMQATIEGLNVVHSATRVFGSLYQAQNRRWSNTSLKVMDVDAGDRETVHPLVVTHPGSGRKGLYVNQVYCQRIEGMTDAESKPLLQFLYEHATRFDFTCRVRWKKDQVLVWDNLCTMHRAVPDYAGKFRYLTRTTVGGVRPAR |  |  |  |  | exhibited better drug resistance | exhibited apparent tolerance | 93.2 | exhibited better drug resistance
5 | SEQ ID NO: 126: RdpA mutant L82H + V187L + F182W + R104G + T112S + R180K (protein) MHAALSPLSQRFERIAVQPLTGVLGAEITGVDLREPLDDSTWNEILDAFHTYQVIYFPGQAITNEQHIAFSRRFGPVDPVPHLKSIEGYPEVQMIRREANESGGVIGDDWHSDSTFLDAPPAAVVMRAIDVPEHGGDTGFLSMYTAWETLSPTMQATIEGLNVVHSATRVFGSLYQAQNKRWSNTSLKVMDVDAGDRETVHPLVVTHPGSGRKGLYVNQVYCQRIEGMTDAESKPLLQFLYEHATRFDFTCRVRWKKDQVLVWDNLCTMHRAVPDYAGKFRYLTRTTVGGVRPAR |  |  |  |  | exhibited better drug resistance | exhibited apparent tolerance | 92.6 | exhibited better drug resistance
6 | SEQ ID NO: 138: RdpA mutant L82H + V187L + F182W + G103L + R180T (protein) MHAALSPLSQRFERIAVQPLTGVLGAEITGVDLREPLDDSTWNEILDAFHTYQVIYFPGQAITNEQHIAFSRRFGPVDPVPHLKSIEGYPEVQMIRREANESLRVIGDDWHTDSTFLDAPPAAVVMRAIDVPEHGGDTGFLSMYTAWETLSPTMQATIEGLNVVHSATRVFGSLYQAQNTRWSNTSLKVMDVDAGDRETVHPLVVTHPGSGRKGLYVNQVYCQRIEGMTDAESKPLLQFLYEHATRFDFTCRVRWKKDQVLVWDNLCTMHRAVPDYAGKFRYLTRTTVGGVRPAR |  |  |  |  | exhibited better drug resistance | exhibited apparent tolerance | 54.6 | exhibited better drug resistance
7 | SEQ ID NO: 142: RdpA mutant L82H + V187L + F182W + R104G + T112S + R180Q (protein) MHAALSPLSQRFERIAVQPLTGVLGAEITGVDLREPLDDSTWNEILDAFHTYQVIYFPGQAITNEQHIAFSRRFGPVDPVPHLKSIEGYPEVQMIRREANESGGVIGDDWHSDSTFLDAPPAAVVMRAIDVPEHGGDTGFLSMYTAWETLSPTMQATIEGLNVVHSATRVFGSLYQAQNQRWSNTSLKVMDVDAGDRETVHPLVVTHPGSGRKGLYVNQVYCQRIEGMTDAESKPLLQFLYEHATRFDFTCRVRWKKDQVLVWDNLCTMHRAVPDYAGKFRYLTRTTVGGVRPAR |  |  |  |  | exhibited better drug resistance | exhibited apparent tolerance | 67 | exhibited better drug resistance
